B1: 402GCFNF^406AAAAA (protein, UniProt P55211 1-416, looked up, variant G402A C403A F404A N405A F406A)
chain: MDEADRRLLRRCRLRLVEELQVDQLWDALLSRELFRPHMIEDIQRAGSGSRRDQARQLIIDLETRGSQALPLFISCLEDTGQDMLASFLRTNRQAAKLSKPTLENLTPVVLRPEIRKPEVLRPETPRPVDIGSGGFGDVGALESLRGNADLAYILSMEPCGHCLIINNVNFCRESGLRTRTGSNIDCEKLRRRFSSLHFMVEVKGDLTAKKMVLALLELAQQDHGALDCCVVVILSHGCQASHLQFPGAVYGTDGCPVSVEKIVNIFNGTSCPSLGGKPKLFFIQACGGEQKDHGFEVASTSPEDESPGSNPEPDATPFQEGLRTFDQLDAISSLPTPSDIFVSYSTFPGFVSWRDPKSGSWYVETLDDIFEQWAHSEDLQSLLLRVANAVSVKGIYKQMPAAAAALRKKLFFKTS
B2: F404A (protein)
chain: GFGDVGALESLRGNADLAYILSMEPCGHCLIINNVNFCRESGLRTRTGSNIDCEKLRRRFSSLHFMVEVKGDLTAKKMVLALLELARQDHGALDCCVVVILSHGCQASHLQFPGAVYGTDGCPVSVEKIVNIFNGTSCPSLGGKPKLFFIQACGGEQKDHGFEVASTSPEDESPGSNPEPDATPFQEGLRTFDQLDAISSLPTPSDIFVSYSTFPGFVSWRDPKSGSWYVETLDDIFEQWAHSEDLQSLLLRVANAVSVKGIYKQMPGCANFLRKKLFFKTSASRA
B3: A331K (protein)
chain: GFGDVGALESLRGNADLAYILSMEPCGHCLIINNVNFCRESGLRTRTGSNIDCEKLRRRFSSLHFMVEVKGDLTAKKMVLALLELARQDHGALDCCVVVILSHGCQASHLQFPGAVYGTDGCPVSVEKIVNIFNGTSCPSLGGKPKLFFIQACGGEQKDHGFEVASTSPEDESPGSNPEPDATPFQEGLRTFDQLDKISSLPTPSDIFVSYSTFPGFVSWRDPKSGSWYVETLDDIFEQWAHSEDLQSLLLRVANAVSVKGIYKQMPGCFNFLRKKLFFKTSASRA
B4: D330A-N405T (protein)
chain: GFGDVGALESLRGNADLAYILSMEPCGHCLIINNVNFCRESGLRTRTGSNIDCEKLRRRFSSLHFMVEVKGDLTAKKMVLALLELARQDHGALDCCVVVILSHGCQASHLQFPGAVYGTDGCPVSVEKIVNIFNGTSCPSLGGKPKLFFIQACGGEQKDHGFEVASTSPEDESPGSNPEPDATPFQEGLRTFDQLAAISSLPTPSDIFVSYSTFPGFVSWRDPKSGSWYVETLDDIFEQWAHSEDLQSLLLRVANAVSVKGIYKQMPGCFTFLRKKLFFKTSASRA
B5: T317E (protein)
chain: GFGDVGALESLRGNADLAYILSMEPCGHCLIINNVNFCRESGLRTRTGSNIDCEKLRRRFSSLHFMVEVKGDLTAKKMVLALLELARQDHGALDCCVVVILSHGCQASHLQFPGAVYGTDGCPVSVEKIVNIFNGTSCPSLGGKPKLFFIQACGGEQKDHGFEVASTSPEDESPGSNPEPDAEPFQEGLRTFDQLDAISSLPTPSDIFVSYSTFPGFVSWRDPKSGSWYVETLDDIFEQWAHSEDLQSLLLRVANAVSVKGIYKQMPGCFNFLRKKLFFKTSASRA
B6: F326K (protein)
chain: GFGDVGALESLRGNADLAYILSMEPCGHCLIINNVNFCRESGLRTRTGSNIDCEKLRRRFSSLHFMVEVKGDLTAKKMVLALLELARQDHGALDCCVVVILSHGCQASHLQFPGAVYGTDGCPVSVEKIVNIFNGTSCPSLGGKPKLFFIQACGGEQKDHGFEVASTSPEDESPGSNPEPDATPFQEGLRTKDQLDAISSLPTPSDIFVSYSTFPGFVSWRDPKSGSWYVETLDDIFEQWAHSEDLQSLLLRVANAVSVKGIYKQMPGCFNFLRKKLFFKTSASRA
B7: D327G (protein)
chain: GFGDVGALESLRGNADLAYILSMEPCGHCLIINNVNFCRESGLRTRTGSNIDCEKLRRRFSSLHFMVEVKGDLTAKKMVLALLELARQDHGALDCCVVVILSHGCQASHLQFPGAVYGTDGCPVSVEKIVNIFNGTSCPSLGGKPKLFFIQACGGEQKDHGFEVASTSPEDESPGSNPEPDATPFQEGLRTFGQLDAISSLPTPSDIFVSYSTFPGFVSWRDPKSGSWYVETLDDIFEQWAHSEDLQSLLLRVANAVSVKGIYKQMPGCFNFLRKKLFFKTSASRA
B8: D327K (protein)
chain: GFGDVGALESLRGNADLAYILSMEPCGHCLIINNVNFCRESGLRTRTGSNIDCEKLRRRFSSLHFMVEVKGDLTAKKMVLALLELARQDHGALDCCVVVILSHGCQASHLQFPGAVYGTDGCPVSVEKIVNIFNGTSCPSLGGKPKLFFIQACGGEQKDHGFEVASTSPEDESPGSNPEPDATPFQEGLRTFKQLDAISSLPTPSDIFVSYSTFPGFVSWRDPKSGSWYVETLDDIFEQWAHSEDLQSLLLRVANAVSVKGIYKQMPGCFNFLRKKLFFKTSASRA
B9: D327R (protein)
chain: GFGDVGALESLRGNADLAYILSMEPCGHCLIINNVNFCRESGLRTRTGSNIDCEKLRRRFSSLHFMVEVKGDLTAKKMVLALLELARQDHGALDCCVVVILSHGCQASHLQFPGAVYGTDGCPVSVEKIVNIFNGTSCPSLGGKPKLFFIQACGGEQKDHGFEVASTSPEDESPGSNPEPDATPFQEGLRTFRQLDAISSLPTPSDIFVSYSTFPGFVSWRDPKSGSWYVETLDDIFEQWAHSEDLQSLLLRVANAVSVKGIYKQMPGCFNFLRKKLFFKTSASRA
B10: Q328K (protein)
chain: GFGDVGALESLRGNADLAYILSMEPCGHCLIINNVNFCRESGLRTRTGSNIDCEKLRRRFSSLHFMVEVKGDLTAKKMVLALLELARQDHGALDCCVVVILSHGCQASHLQFPGAVYGTDGCPVSVEKIVNIFNGTSCPSLGGKPKLFFIQACGGEQKDHGFEVASTSPEDESPGSNPEPDATPFQEGLRTFDKLDAISSLPTPSDIFVSYSTFPGFVSWRDPKSGSWYVETLDDIFEQWAHSEDLQSLLLRVANAVSVKGIYKQMPGCFNFLRKKLFFKTSASRA
B11: Q328R (protein)
chain: GFGDVGALESLRGNADLAYILSMEPCGHCLIINNVNFCRESGLRTRTGSNIDCEKLRRRFSSLHFMVEVKGDLTAKKMVLALLELARQDHGALDCCVVVILSHGCQASHLQFPGAVYGTDGCPVSVEKIVNIFNGTSCPSLGGKPKLFFIQACGGEQKDHGFEVASTSPEDESPGSNPEPDATPFQEGLRTFDRLDAISSLPTPSDIFVSYSTFPGFVSWRDPKSGSWYVETLDDIFEQWAHSEDLQSLLLRVANAVSVKGIYKQMPGCFNFLRKKLFFKTSASRA
B12: L329G (protein)
chain: GFGDVGALESLRGNADLAYILSMEPCGHCLIINNVNFCRESGLRTRTGSNIDCEKLRRRFSSLHFMVEVKGDLTAKKMVLALLELARQDHGALDCCVVVILSHGCQASHLQFPGAVYGTDGCPVSVEKIVNIFNGTSCPSLGGKPKLFFIQACGGEQKDHGFEVASTSPEDESPGSNPEPDATPFQEGLRTFDQGDAISSLPTPSDIFVSYSTFPGFVSWRDPKSGSWYVETLDDIFEQWAHSEDLQSLLLRVANAVSVKGIYKQMPGCFNFLRKKLFFKTSASRA

tested on: chimeric Caspase-9 polypeptide; assay: Caspase-9 mutant classes and basal activity (Table 5); format: cell-based; settings: Caspase-9 mutant class
Sequence (P62942 2-108 F37V limits assumed): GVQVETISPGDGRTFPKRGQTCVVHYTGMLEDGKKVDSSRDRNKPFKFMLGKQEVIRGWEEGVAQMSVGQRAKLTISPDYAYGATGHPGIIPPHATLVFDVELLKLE

Row | Molecule | Catalytic activity (class 'Catalytically dead')
1 | B1 | dead
2 | B2 | dead

same assay, conditions: Caspase-9 mutant class; basal (ligand-independent) signaling compared with unmodified chimeric Caspase-9

Row | Molecule | Basal Activity
3 | B3 | Increased
4 | B4 | Increased
5 | B5 | Increased
6 | B6 | Increased
7 | B7 | Increased
8 | B8 | Increased
9 | B9 | Increased
10 | B10 | Increased
11 | B11 | Increased
12 | B12 | Increased

Reference: patent US20210147507A1, “METHODS TO AUGMENT OR ALTER SIGNAL TRANSDUCTION” (Bellicum Pharmaceuticals, Inc., priority 2017, published 2021)
